# Experimental data published in patent publication US10130682B2, “Methods of using pigment epithelium derived factor (PEDF) for the treatment and prevention of agent-induced gonadal or uterine toxicity” (Ramot at Tel-Aviv University Ltd., priority 2014, dated 2018).
# B1: rPEDF: Human recombinant PEDF (NM_002615.4, SEQ ID NO: 1) expressed in E. coli BL21, purified on Ni-NTA His-Bind resin (protein, UniProt P36955 20-418, looked up)
# Pigment epithelium-derived …: QNPASPPEEGSPDPDSTGALVEEEDPFFKVPVNKLAAAVSNFGYDLYRVRSSTSPTTNVLLSPLSVATALSALSLGAEQRTESIIHRALYYDLISSPDIHGTYKELLDTVTAPQKNLKSASRIVFEKKLRIKSSFVAPLEKSYGTRPRVLTGNPRLDLQEINNWVQAQMKGKLARSTKEIPDEISILLLGVAHFKGQWVTKFDSRKTSLEDFYLDEERTVRVPMMSDPKAVLRYGLDSDLSCKIAQLPLTGSMSIIFFLPLKVTQNLTLIEESLTSEFIHDIDRELKTVQAVLTVPKLKLSYEGEVTKSLQEMKLQSLFDSPDFSKITGKPIKLTQVEHRAGFEWNEDGAGTTPSPGLQPAHLTFPLDYHLNQPFIFVLRDTDTGALLFIGKILDPRGP
# modifications: His tag
# Tests used:
# [1] = tested on: progesterone receptor (PR); experiment: Uterine PR mRNA (qPCR), prolonged tamoxifen model; format: in vivo, mouse; settings: tamoxifen models taken together
# Procedure: DXR damage was evaluated in 7 weeks ICR female mice following treatment for superovulation with pregnant mares' serum (PMSG, 7 IU) SC on day 0 and human chorionic gonadotropin (hCG, […]) SC on day 2. On day 1, mice were administered with DXR (6 mg/kg) or saline (control) IV. Mice ovaries were retrieved on day 3 (FIG. 1A). The ability of rPEDF to overcome the destructive effect of DXR 7 weeks ICR female mice were treated with DXR (6 mg/kg) or saline (control) IV on day 0, rPEDF (2 mg/kg) or TRIS (control) was administered SC on day 1, followed by induction for superovulation with PMSG (7 IU) SC on day 4 and hCG (7 IU) SC on day 6. Mice ovaries were retrieved on day 7 (FIG. 2A). […] Mice uteri were excised at day 7. […] Mice treated with tamoxifen alone served as control. […]
# Total RNA was isolated from various tissues (ovaries, eyes) or from granulosa cells, using Trizol reagent (Invitrogen) according to manufacturer's instructions, and quantified with the Nano-Drop spectrophotometer (ND-1000; Thermo Scientific). […] DNA was amplified using 1 μl RT reaction and 50 pmol gene-specific primers in ReadyMix™ mixture (Sigma). […] Changes in the level of expression of mRNA were detected by SYBR green reagent (SYBR® Green PCR Master Mix, ABI, Carlsbad, Calif., USA) along with 15 ng cDNA and specific primers, on a StepOnePlus Real-Time PCR System (Applied Biosystems, Foster City, Calif., USA).
# [2] = tested on: VEGF; experiment: Uterine VEGF protein (western blot), sub-acute tamoxifen model; format: in vivo, mouse; settings: rPEDF 10 mg/kg SC with tamoxifen 2.5 μg/mouse daily for 7 days
# Procedure: (§1) DXR damage was evaluated in 7 weeks ICR female mice following treatment for superovulation with pregnant mares' serum (PMSG, 7 IU) SC on day 0 and human chorionic gonadotropin (hCG, […]) SC on day 2. On day 1, mice were administered with DXR (6 mg/kg) or saline (control) IV. Mice ovaries were retrieved on day 3 (FIG. 1A). The ability of rPEDF to overcome the destructive effect of DXR 7 weeks ICR female mice were treated with DXR (6 mg/kg) or saline (control) IV on day 0, rPEDF (2 mg/kg) or TRIS (control) was administered SC on day 1, followed by induction for superovulation with PMSG (7 IU) SC on day 4 and hCG (7 IU) SC on day 6. Mice ovaries were retrieved on day 7 (FIG. 2A). […] Mice uteri were excised at day 7. […] Mice treated with tamoxifen alone served as control. […] Mice treated with tamoxifen alone served as control.
# (§2) Samples were homogenized in cold lysis buffer (20 mM HEPES, 150 mM NaCl and 0.2% Igepal; sigma) and centrifuged at 12,000 rpm, for 15 min, at 4° C.). Proteins were separated by sodium dodecyl sulfate polyacrylamide gel electrophoresis (SDS-PAGE; 10%; Bio-Rad, Israel). […] Approximate molecular masses were determined by comparison with the migration of pre-stained protein standards (Bio-Rad). […] Intensity of the protein bands was quantified by Image J […] (NIH).
# [3] = tested on: GPX-1; experiment: GPX-1 mRNA level (qPCR) in LH-15 cells under H2O2; format: cell-based, rat; settings: rPEDF 1 nM added to H2O2
# Procedure: (§3) Rat granulosa cell line LH-15 [Suh et al. J Cell Biol (1992) 119: 439-450] was cultured in hormone-free DMEM-F12 medium, supplemented with penicillin (100 IU/ml; Biological Industries), streptomycin ([…]; Biological Industries) and 10% charcoal-stripped fetal bovine serum (CS-FBS; Invitrogen) (culture medium), as described previously (Breckwoldt et al. 1996, Sasson & Amsterdam 2002). Cells were serum-starved for 16 hours (0.1% CS-FBS) prior to and during recombinant PEDF (rPEDF) stimulation or incubated in 2% CS-FBS during H2O2 stimulation.
# (§4) Total RNA was isolated from various tissues (ovaries, eyes) or from granulosa cells, using Trizol reagent (Invitrogen) according to manufacturer's instructions, and quantified with the Nano-Drop spectrophotometer (ND-1000; Thermo Scientific). First-strand cDNA was produced by RT (Maxima™ Reverse transcriptase, Thermo Scientific) from a total of 1 μg RNA, using oligo-dt primers (Thermo Scientific). DNA was amplified using 1 μl RT reaction and 50 pmol gene-specific primers in ReadyMix™ mixture (Sigma). […] Changes in the level of expression of mRNA were detected by SYBR green reagent (SYBR® Green PCR Master Mix, ABI, Carlsbad, Calif., USA) along with 15 ng cDNA and specific primers, on a StepOnePlus Real-Time PCR System (Applied Biosystems, Foster City, Calif., USA).
# [4] = tested on: AKT; experiment: AKT phosphorylation (western blot) in serum-starved LH-15 cells; format: cell-based, rat; settings: 1 nM rPEDF, various durations, P<0.05
# Procedure: as §3
# (§5) Samples were homogenized in cold lysis buffer (20 mM HEPES, 150 mM NaCl and 0.2% Igepal; sigma) and centrifuged at 12,000 rpm, for 15 min, at 4° C.). Proteins were separated by sodium dodecyl sulfate polyacrylamide gel electrophoresis (SDS-PAGE; 10%; Bio-Rad, Israel). Separated proteins were transferred onto nitrocellulose membranes (Whatman GmbH, Germany) in a mini tank transfer unit (TE 22, Amersham, UK). Approximate molecular masses were determined by comparison with the migration of pre-stained protein standards (Bio-Rad). Blots were blocked for 1 hour in TBST (10 mM Tris-HCl, pH=8.0, 150 mM NaCl, 0.05% Tween 20) containing 5% skim-milk (Alba, N.Y., USA) followed by an over-night incubation at 4° C. with primary antibodies. […] Intensity of the protein bands was quantified by Image J […] (NIH).
# [5] = tested on: OVX ICR mice; experiment: Uterine weight, prolonged tamoxifen model in ovariectomized mice; format: in vivo, mouse
# Procedure: as §1
# (§6) At the end of each experiment, uteri were isolated, excised and weighed.
# [6] = tested on: ERα; experiment: Uterine ERα mRNA (qPCR), prolonged tamoxifen model; format: in vivo, mouse; settings: prolonged tamoxifen model
# [7] = tested on: VEGF; experiment: Uterine VEGF protein (western blot), prolonged tamoxifen model; format: in vivo, mouse; settings: rPEDF 2 mg/kg SC once every 3 days from day 8 of one-month tamoxifen treatment
# Procedure: as §1, §2
# [8] = tested on: BAX; experiment: BAX protein level (western blot) in LH-15 cells under H2O2; format: cell-based, rat; settings: exogenous rPEDF added to H2O2; P<0.05
# Procedure: as §3, §5
# [9] = tested on: ERα; experiment: Uterine ERα protein (western blot), prolonged tamoxifen model; format: in vivo, mouse
# Procedure: as §1, §2
# [10] = tested on: ovariectomized (OVX) ICR mice; experiment: Uterine weight, sub-acute tamoxifen model in ovariectomized mice; format: in vivo, mouse; settings: rPEDF 10 mg/kg SC with tamoxifen 2.5 μg/mouse daily for 7 days
# Procedure: as §1, §6
# [11] = tested on: SOD-1; experiment: SOD-1 mRNA level (qPCR) in LH-15 cells under H2O2; format: cell-based, rat; settings: rPEDF 1 nM added to H2O2
# Procedure: as §3, §4
# [12] = tested on: ERβ; experiment: Uterine ERβ mRNA (qPCR), prolonged tamoxifen model; format: in vivo, mouse; settings: tamoxifen models taken together
# [13] = tested on: LH-15 cells; experiment: MTT cell viability assay in LH-15 granulosa cells under H2O2; format: cell-based, rat; settings: rPEDF 1 nM or 5 nM with 100 or 200 μM H2O2, 24 hours
# Procedure: as §3
# Equal amount of LH-15 cells were seeded onto 6-well plates to a final volume of 500 μl. Following treatments, each well was incubated for 30 minutes with 10 μl of MTT [3-(4, 5-Dimethylthiazol-2-yl)-2, 5-diphenyltetrazolium bromide; 5 mg/ml] followed by an additional 2-4 hours incubation period at 37° C. The reaction was terminated by addition of 110 μl HCl (0.07 M in isopropanol) and OD 560 nm was measured by the SpectraMax 190 microplate reader ([…], Eugene, Oreg., USA).
# [14] = tested on: JNK; experiment: Uterine JNK phosphorylation (western blot), sub-acute tamoxifen model; format: in vivo, mouse; settings: 7 days
# Procedure: as §1, §2
# [15] = tested on: CD34; experiment: CD34 immunohistochemical staining of uterine blood vessels, prolonged tamoxifen model; format: in vivo, mouse; settings: prolonged treatment
# Procedure: as §1
# Paraffin-embedded sections were deparaffinized, microwave heated while being subjected to an antigen retrieval agent (H-3300, Vector Laboratories Inc., Burlingame, Calif., USA), cooled on ice to room temperature, rinsed in PBS, incubated for 1 hour with PBSTg (0.2% Tween and gelatin in PBS), washed with PBS, blocked for 10 minutes in blocking solution (Cell Marque Corporation, Calif., USA) and incubated overnight with anti PNPLA2 or anti-CD34 primary antibodies. […]
# [16] = tested on: ICR female mice; experiment: Number of ovulated oocytes in DXR-treated mice given rPEDF; format: in vivo, mouse; settings: rPEDF 2 mg/kg SC the day after DXR 6 mg/kg IV; vs DXR alone
# Procedure: FIG. 2A is an illustration depicting the experimental setting: 7 weeks ICR female mice (n=4/group) were treated with DXR or saline (control), at the day after mice were administrated with rPEDF or TRIS (control). On the fourth day of the experiment mice were induced for superovulation with the standard PMSG/hCG protocol [Ben-Aharon et al. Reproductive Biology and Endocrinology: RB&E (2010) 8: 20]. Mice were sacrificed 16-17 hours after hCG administration.
# DXR damage was evaluated in 7 weeks ICR female mice following treatment for superovulation with pregnant mares' serum (PMSG, 7 IU) SC on day 0 and human chorionic gonadotropin (hCG, […]) SC on day 2. On day 1, mice were administered with DXR (6 mg/kg) or saline (control) IV. Mice ovaries were retrieved on day 3 (FIG. 1A). The ability of rPEDF to overcome the destructive effect of DXR 7 weeks ICR female mice were treated with DXR (6 mg/kg) or saline (control) IV on day 0, rPEDF (2 mg/kg) or TRIS (control) was administered SC on day 1, followed by induction for superovulation with PMSG (7 IU) SC on day 4 and hCG (7 IU) SC on day 6. […]
# cumulus-enclosed oocytes were isolated from the oviductal ampullae into M2 medium (Sigma), 16-18 hrs after hCG administration. Cumulus cells were removed by a brief exposure to 400 IU/ml hyaluronidase (Sigma) and the number of ovulated oocytes was counted under binocular.
# [17] = tested on: AKT; experiment: Uterine AKT phosphorylation (western blot), sub-acute tamoxifen model; format: in vivo, mouse; settings: 7 days
# Procedure: as §1, §2
# [18] = tested on: ERα; experiment: Uterine ERα mRNA (qPCR), sub-acute tamoxifen model; format: in vivo, mouse; settings: sub-acute tamoxifen model
molecule,measurement,setting,value
B1,"PR expression in uteri, rPEDF with tamoxifen",[1],without modifying the expression
same,"uterine VEGF protein levels, tamoxifen+rPEDF vs tamoxifen alone",[2],significant decrease
same,GPX-1 mRNA expression under H2O2,[3],elevated their expression
same,phosphorylation of AKT,[4],"induced prolonged, time-dependent phosphorylation of AKT starting at 5 minutes"
same,effectiveness of rPEDF treatment by timing of administration,"[5]; preliminary analysis, data not shown, prolonged tamoxifen model",more effective when administered following a short period of initiation with tamoxifen
same,"uterine weights, tamoxifen+rPEDF vs tamoxifen alone",[5]; rPEDF 2 mg/kg SC once every 3 days from day 8 of one-month tamoxifen treatment,"down-regulated in mice treated with tamoxifen+rPEDF, though not statistically significant (p=0.2)"
same,"ERα mRNA levels in uteri, rPEDF with tamoxifen",[6],able to reverse the prolonged tamoxifen-induced reduction in ERα mRNA levels
same,"uterine VEGF protein expression, tamoxifen+rPEDF vs tamoxifen alone",[7],significantly decreased
same,BAX expression under H2O2,[8],decreased its expression
same,"ERα protein expression in uteri, rPEDF with tamoxifen",[9],down-regulate the expression of ERα protein
same,"uterine weight, tamoxifen+rPEDF vs tamoxifen alone",[10],significant decrease
same,SOD-1 mRNA expression under H2O2,[11],elevated their expression
same,"ERβ expression in uteri, rPEDF with tamoxifen",[12],without modifying the expression
same,cells viability (MTT) under H2O2,[13],significantly (P<0.05) decreased H2O2-induced reduction in cells viability
same,"uterine JNK phosphorylation, tamoxifen+rPEDF vs tamoxifen alone",[14],increase in phosphorylation of JNK
same,"CD34 staining in uteri, tamoxifen+rPEDF vs tamoxifen alone",[15],decrease in CD34 staining
same,number of ovulated oocytes,[16],significantly (P<0.05) decreased DXR-induced reduction in number of ovulated oocytes
same,"uterine AKT phosphorylation, tamoxifen+rPEDF vs tamoxifen alone",[17],significant decrease in phosphorylation of AKT
same,"ERα mRNA levels in uteri, rPEDF with tamoxifen",[18],able to attenuate the sub-acute tamoxifen-induced reduction in ERα mRNA levels
